# Data reported in US20090274696A1, “METHODS FOR TREATING INFLAMMATION” (WYETH, priority 2008, published 2009).
# B1: heat inactivated rFIZZ1: FIZZ1 solution heated at 70° C. for 60 min (protein, UniProt Q9EP95 24-111, looked up)
# Resistin-like alpha: DETIEIIVENKVKELLANPANYPSTVTKTLSCTSVKTMNRWASCPAGMTATGCACGFACGSWEIQSGDTCNCLCLLVDWTTARCCQLS
# modifications: heat inactivated
# notes: FIZZ1 solution heated at 70° C. for 60 min
# B2: ovalbumin (protein, UniProt P01012 2-386, looked up)
# Ovalbumin: GSIGAASMEFCFDVFKELKVHHANENIFYCPIAIMSALAMVYLGAKDSTRTQINKVVRFDKLPGFGDSIEAQCGTSVNVHSSLRDILNQITKPNDVYSFSLASRLYAEERYPILPEYLQCVKELYRGGLEPINFQTAADQARELINSWVESQTNGIIRNVLQPSSVDSQTAMVLVNAIVFKGLWEKAFKDEDTQAMPFRVTEQESKPVQMMYQIGLFRVASMASEKMKILELPFASGTMSMLVLLPDEVSGLEQLESIINFEKLTEWTSSNVMEERKIKVYLPRMKMEEKYNLTSVLMAMGITDVFSSSANLSGISSAESLKISQAVHAAHAEINEAGREVVGSAEAGVDAASVSEEFRADHPFLFCIKHIATNAVLFFGRCVSP
# notes: allergen used to sensitize and challenge mice (OA/OA, OA/PBS groups)
# Tests used:
# [1] = system: tracheal smooth muscle (TSM) of mouse tracheal rings; test: ISO-induced relaxation of CCh-contracted tracheal rings; format: cell-based; details: in either presence or absence of rFIZZ1
# Protocol: (§1) Experimental animals were sacrificed by CO2 asphyxiation. Tracheas were surgically excised and cleaned of adherent connective tissue. Each trachea was sectioned into rings 3-4 mm in length and cultured in DMEM containing 1.0 M HEPES, 1.0 M NaOH, 5% of heat-inactivated FBS (Hy-Clone, Logan, Utah), 0.2M glutamine, 1.0 M CaCl2, 2.5 μg/ml fungizone, 5 μg/mL insulin, 100 U/mL penicillin and 100 μg/mL streptomycin) (DMEM-5%) for 24 hours. For in vitro experiments, the tracheal rings were cultured in DMEM in the absence and presence of either 10 or 100 nM recombinant FIZZ1 (Leinco Technologies, USA) for 24 hours.
# (§2) Trachea were supported longitudinally by a plexiglas rod with a stainless steel pin into the base of a double-jacketed, glass organ bath filled with 10 mL of Krebs-Henseleit (K-H) solution (37° C.) of the following composition: 118 mM NaCl; 4.7 mM KCl; 1.2 mM KH2PO4; 11.1 mM Dextrose; 1.2 mM MgSO4; 2.8 mM CaCl2; and 25 mM NaHCO3. The solution was maintained at a pH of 7.40-7.45 and continuously gassed with a mixture of 5% CO2 and […] for the duration of each experiment. […] Initial tensions of TSM were set at approximately 0.5 g and maintained for 1 hour. Agonists were given after a steady state of tension had been reached.
# [CCh]-response curves at the doses ranging from 3×10^−8 to 10^−5 M were completed in tracheal rings in absence and presence of either FIZZ1 or LPS (0.1 ng/mL). Concentrations of agonist were increased only when force responses to the previous concentration had stabilized. To examine TSM relaxant responses to isoprenaline (ISO), tracheal rings were first contracted by an addition of 1.0 μM CCh (Sigma, USA). Once the contraction had stabilized, ISO (Sigma, USA) was introduced into each bath at increasing concentrations (3×10^−8-10^−5 M). […]
# (§3) At the end of each force measurement experiment, tracheas were blotted on a gauze pad and weighted. Results were calculated as milligram of tension per milligram of TSM weight (mg/mg) and expressed as an individual percentage (%) of 10 μM CCh- or 200 μM papaverine-induced tension response in PBS-treated trachea. […]
# [2] = system: BAL cells; test: Counts of BAL cells in intranasally challenged mice; format: in vivo, mouse; details: intranasal once a day×5 days, 100 nM rFIZZ1 or 0.1 ng/ml LPS; vs PBS-treated mice
# Protocol: (§4) For some experiments, ex vivo TSM tensions of fresh tracheal rings and BAL cell counts were measured at 24 hours after the last treatment of mice receiving an intranasal dose of either PBS, 0.1 ng/m: LPS or 100 nM rFIZZ1 (once a day×5 days).
# (§5) PBS- and OA-treated mice were sacrificed and their airways lavaged once with 1.0 mL of PBS via tracheal cannulation. An equal volume of BAL from each mouse was collected and centrifuged (1200 rpm, 5 min). Total BAL cells were counted using a hemocytometer. BAL cells ([…]) collected from each sample were applied to a glass slide using a cytospin (800 rpm, 8 min) and then the slide was stained with Hema 3 Stain Set (Fisher Scientific) for the differential count of cells. The relative proportion of different cells counted from 300 cells/slide was factored to the number of total BAL cells collected in each group.
# [3] = system: tracheal smooth muscle (TSM) of mouse tracheal rings; test: CCh-evoked force generation in cultured tracheal rings; format: cell-based; details: FIG. 4B, 100 nM heat-inactivated or native rFIZZ1, 0.1 ng/mL LPS, PBS 100±4.82, n=6
# Protocol: as §1, §2
# [CCh]-response curves at the doses ranging from 3×10^−8 to 10^−5 M were completed in tracheal rings in absence and presence of either FIZZ1 or LPS (0.1 ng/mL). Concentrations of agonist were increased only when force responses to the previous concentration had stabilized. To examine TSM relaxant responses to isoprenaline (ISO), tracheal rings were first contracted by an addition of 1.0 μM CCh (Sigma, USA). Once the contraction had stabilized, ISO (Sigma, USA) was introduced into each bath at increasing concentrations (3×10^−8-10^−5 M). […] In an additional experiment, the effect of FIZZ1 protein on the CCh-mediated force response was verified using 100 nM heat-inactivated FIZZ1 (natural and recombinant FIZZ1 solution heated at 70° C. for 60 min). Their dose-response curves were obtained as above. Fresh drug solutions such as CCh and ISO were made up on the day of the experiment. Doses of the above agents refer to the final bath concentration.
# (§6) At the end of each force measurement experiment, tracheas were blotted on a gauze pad and weighted. Results were calculated as milligram of tension per milligram of TSM weight (mg/mg) and expressed as an individual percentage (%) of 10 μM CCh- or 200 μM papaverine-induced tension response in PBS-treated trachea. For the control group, CCh (papaverine)-mediated responses were normalized to the mean value of the maximal responses.
# [4] = system: mouse tracheal epithelium cells (MTEC); test: Nitrite in MTEC supernatants, Griess reaction; format: cell-based; details: PBS, 0.1 ng/mL LPS or 100 nM rFIZZ1; any measured time point; N=3
# Protocol: MTEC culture was performed by following the protocol of You et al. (“Growth and differentiation of mouse tracheal epithelial cells: selection of a proliferative population,” Am J Physiol Lung Cell Mol Physiol, 2002, 283:L 1315-1321) with minor modification. Briefly, tracheas were incubated in 1.5 mg/mL pronase (Roche Molecular Biochemicals) for 18 h at 4° C. Cells were treated with 0.5 mg/mL crude pancreatic DNase I (Sigma-Aldrich) on ice for 5 min. After incubation in tissue culture plates for 3-4 h in 5% CO2 at 37° C., nonadherent cells were incubated in a plate coated with type I rat tail collagen (BD Biosciences) in modified BEBM (Lonza, Md. USA) containing 10 μg/ml insulin, 5 μg/ml transferrin, 25 ng/ml epidermal growth factor, 5 μg/ml epinephrine and 30 μg/ml bovine pituitary extract, 0.5 nM Hydrocortisone, 25 ng/ml hEGF, 15 nM Triiodothyronine, 0.25 μg/ml Gentamicin/amphotericin-B and 0.01 μM retinoic acid in 5% CO2 at 37° C. […]
# Nitric oxide (NO) was examined by measuring an end product, nitrite, using the Griess reaction (Xu et al., “Arginase and autoimmune inflammation in the central nervous system,” Immunology, 2003; 110:141-148). […] Absorbance was read at 540 nm in an automated microplate reader. […]
# [5] = system: airway epithelium of cultured trachea; test: Histological examination of tracheal rings and airway epithelium; format: cell-based, mouse; details: cultured overnight with FIZZ1 100 nM or LPS 0.1 ng/mL
# Protocol: Histological examination of the structure of the airway and the status of the airway epithelial layer was performed in whole/sectional fresh trachea and as well as trachea cultured overnight with and without 100 nM FIZZ1. To understand the role of airway epithelium in regulating contractility of TSM, we measured the contractile response of tracheal rings after the epithelium was mechanically removed. Briefly, airway epithelial cells were removed by gently rubbing the intraluminal surface with polyethylene tubing (Becton Dickinson & Company, MD USA) connected to a Precision Glide needle (30G1/2) followed by perfusion with 1.0 ml air bubbles and then 1.0 ml K-H solution (re). All of the experimental tracheas were stained with H & E solution (CAT hematoxylin, Edgar Degas Eosin Working Solution, Biocare Medical, Concord, Calif.) and photographed under a light microscope at ×4.0 and ×20 magnification. Tracheal morphometric analysis was performed using a computer-based image analysis system consisting of a Nikon Eclipse E800 microscope (Melville, N.Y. USA) with a SPOT RT Slider camera (Diagnostic Instruments, Inc., Sterling Heights, Mich. USA).
# [6] = system: TSM of fresh tracheal rings; test: Force response of fresh tracheas from intranasally challenged mice; format: in vivo, mouse; details: intranasal once a day×5 days, 100 nM rFIZZ1 or 0.1 ng/ml LPS; 24 hours after last treatment; PBS 100.00±14.63; N=5
# Protocol: as §4, §2, §6
# [7] = system: BAL cells; test: BAL cellular composition in OA-treated mouse model; format: in vivo; details: OA/OA-treated mice vs PBS/PBS and OA/PBS; n=6
# Protocol: (§7) Animals were divided into three groups including phosphate buffered saline (PBS)-sensitized and -challenged (PBS/PBS), OA-sensitized and PBS-challenged (OA/PBS), and OA-sensitized and -challenged mice (OA/OA). Mice were intraperitoneally injected with an equivalent volume (100 μL) of PBS or OA (20 μg) with 2.25 mg Al(OH)3 in PBS on day 0 and 14. From day 25 to 34, mice were challenged with an aerosol of PBS or OA (5% in PBS) for 30 min once a day for 10 consecutive days.
# as §5
# [8] = system: TSM of tracheal rings; test: TSM contractile response to CCh in OA-treated mouse model; format: in vivo; details: PBS/PBS 100±6.77, n=6
# Protocol: as §7
# Experimental animals were sacrificed by CO2 asphyxiation. Tracheas were surgically excised and cleaned of adherent connective tissue. Each trachea was sectioned into rings 3-4 mm in length and cultured in DMEM containing 1.0 M HEPES, 1.0 M NaOH, 5% of heat-inactivated FBS (Hy-Clone, Logan, Utah), 0.2M glutamine, 1.0 M CaCl2, 2.5 μg/ml fungizone, 5 μg/mL insulin, 100 U/mL penicillin and 100 μg/mL streptomycin) (DMEM-5%) for 24 hours. For in vitro experiments, the tracheal rings were cultured in DMEM in the absence and presence of either 10 or 100 nM recombinant FIZZ1 (Leinco Technologies, USA) for 24 hours. […]
# as §3
# [9] = system: FIZZ1 protein; test: FIZZ1 protein in BAL by Western blot; format: in vivo, mouse; details: OA/OA-treated mice
# Protocol: as §7
# Protein expression levels of were examined using Western blot analysis. Briefly, aliquots (100 μg/well) of BAL supernatant and tracheal lysate were loaded onto 4-20% SDS-PAGE gel in an equal volume. Size-fractionated proteins were transferred to nitrocellulose membrane and then blocked with 5% nonfat dried milk in TBS at room temperature for 60 min. […] Immunoreactive bands were detected by chemiluminesence. Protein expression levels were evaluated in relative to expression of β-actin in the same tissue. Quantification of Western blots for phosphorylated signaling proteins was performed using ImageJ and relative band intensity was calculated as % of the intensity of the β-actin protein band.
# [10] = system: FIZZ1 mRNA; test: FIZZ1 mRNA expression in trachea by transcriptional profiling; format: in vivo, mouse; details: OA/OA-treated mice over PBS/PBS- or OA/PBS-treated mice
# Protocol: as §7
# Three (3) groups of mice were analyzed using PBS/PBS, OA/PBS and OA/OA, with 18 animals per group. Tracheal rings from 6 animals per group were combined as replicates, to produce total RNA. […] RNA was quantified using the Nanoprop ND-1000 spectrophotometer. […] The Ovation kit utilizes the Ribo-SPIA process to linearly amplify and label, limiting amounts mRNA in a three-step process resulting in microgram quantities (Kum et al, “Novel Isothermal, Linear Nucleic Acid Amplification Systems for Highly Multiplexed Applications,” Clinical Chemistry, 2005; 51:1973-1981). Approximately 1.5 μg of purified and fragmented biotinylated cRNA, together with controls for quantitating the amount of each transcript, was hybridized to the mouse gene chip array, MOE 430—2.0 (Affymetrix) for 16-18 hours. […] Resulting signals were normalized and quantified using Gene Logic's MAS 5.0 software.
molecule,measurement,setting,value
"CC(C)NCC(O)c1ccc(O)c(O)c1 (centres unmarked) [ISO, isoprenaline, reference compound]","TSM relaxation, level relative to the relaxation by papaverine",[1],50%
"lipopolysaccharide [LPS, reference compound]",number of BAL cells,[2],obvious increase
same,"maximal responses (%) of the tracheal rings, CCh-evoked",[3],96.40±4.31%
same,changes in nitrite concentration in MTEC supernatants,[4],not obvious
same,"smooth muscle layers, histology",[5],clear and histologically intact
same,"Maximal tensions (%) of TSM, CCh-evoked, fresh trachea",[6],108.28±5.44%
B1,"maximal responses (%) of the tracheal rings, CCh-evoked",[3],100.00±4.77%
same,"maximal responses (%) of the tracheal rings, CCh-evoked",[3]; listed as Heat-inactivated FIZZ1,no observable effect
B2,number of lymphocytes and eosinophils in the BAL,[7],markedly increased
same,number of total BAL cells,[7],large increase
same,contractile forces (%) of TSM to CCh,[8]; OA/OA: OA-sensitized and -challenged mice,127.75±3.54%
same,contractile forces (%) of TSM to CCh,[8]; OA/PBS: OA-sensitized and PBS-challenged mice,105.21±2.71%
same,FIZZ1 protein in the BAL,[9],easily detected
same,Fc in FIZZ1 mRNA expression in trachea,[10],1000 fold
